Results on 21 sequences are retold here after the DeepSol protein solubility set.

This series is described as follows: soluble on expression in E. coli; label from the status in PepcDB or PDB records.
“MSLPFPTIPPIAGVEIATGRAGFYKHEREDLLLMRFAEGTSAAGVFTRHGVGSAPVDWCKRQLAATGGADVRALVVNAGCANSFTGKPGADAVRRVATAVGKRFDCRQRDVMMASTGVIGVILDDSKITARLPEVESRLKADAWAEAGRAIMTTDTFPKGAYATAVIDGHEVKIAGIAKGSGMIAPDMATMLAFVATDAAIAPAALQTLVSLYTRTTFNCVTVDGDRSTNDTLLLFATGQSGAPKIHRAGDKRLADFREKLEGVLLDLALQLVKDGEGATKFVKITVNGAESPASARKIARTIAESPLVKTAFAGEDANWGRIVMAVGRADEPVAREKISVKFGDLYAARDGLISAEYDEAKMSAYVKNQAFEVSVDVGVGRGSATVWTCDLTKQYVAINGDYRSEGHHHHHH”: the “soluble on expression in E. coli” value was “not soluble”. Turning to “MGSDKIHHHHHHMATENPPIYMVGGSKGGVGKSFVTLALVDYLRRMEVNVVLVETDTSNPDVMKAVHDEIECGSCDLDDVSGWIDFVNFCDLHPDATVVVNTAARSQAGVAQYGGTLASTLDELARRLVVLWVINRQRDSLELLLRFGATFPNAITHVVRNGYFGSPDKFTLYRDSQLRNAVEAQGQSLDFPDLADRVADELRSQRLSVSKAAEMMHMGERAELLRWRAVCGTMFARVTPHA”, the “soluble on expression in E. coli” value was “not soluble”.

As to “GMGVNMRAETESRIFSVDEYVRPSNGEPIRSVVLETNDSVVVVWHAHPGQEIASHVHPHGQDTWTVISGEAEYHQGNGIVTHLKAGDIAIAKPGQVHGAMNSGPEPFIFVSVVAPGNAGFALAEK”, the “soluble on expression in E. coli” value is reported as “soluble”. In the case of “MANQCFNQAKAVLEFRLDPCHLPQTTTYFSSKTGNQMICSLSERGVFFKTDTFSSLSRLVPSYQFKGIAARTVITLSGEKAVALELLHANEESCVPLLVSRDLNNVLLDWRLWADTYSLPMLMINEDNRLVVVKDRSDLRRFFSTTLHFRKKRFLLRYRNPLGLRLMIANQVAL” it was “not soluble”.

“GSVASVHASISGSSASSTSSTPEVKPLKSLLGDSAPTLHLNKGMAILFAVVARGTTILAKHAWCGGNFLEVTEQILAKIPSENNKLTYSHGNYLFHYICQDRIVYLCITDDDFERSRAFSFLNEVKKRFQTTYGSRAQTALPYAMNSEFSSVLAAQLKHHSENHHHHHH”: the “soluble on expression in E. coli” value is “soluble”. Regarding “MSKRYAVVLAAGQGTRMKSKLYKVLHPVCGKPMVEHVVDQISTLNVDKVVTIVGHGAEKVQEHLAGKSEFVKQDEQLGTAHAVLQAKAELAGKDGVTLVVCGDTPLIEASTMEALLKYHHEKRAKATILTTVIEDPTGYGRIIRDDLGIVEKIVEHKDATEKEQRISEINTGTYCFDNKALFEALENVSNDNVQGEYYLPDVIKILKDSDEVVAAYRMESFEESLGVNDRIALAEASKLMQRRINENHMRNGVTLVNPESTYIDIDVKIGQDTVIEPGVMLRGKTVIGDDCVVTSGSEIVNSVIGERVHVRTSSIFESKVGDDVQIGPYAHLRPESDIHDHVKIGNYVETKKAVVGEGTKLPHFIYMGDAEIGKNVNVGCGSIAVNYDGKNKAKTIIGDNVFVGCNSNLIAPVKVGDRAFIAAGSTITKDVPEDALGIARAKQDNKLGYAKHLNHSK”, the “soluble on expression in E. coli” value is on record as “not soluble”. In the case of “MPGELLGAHYGHCFGCGEEQSHGLHLAARAGQGVSITAEFTVQPAHQGAPGLAHGGVLATALDETLGSLNWLLRTIAVTGRLETDFVRPVPVGTVLYLEAEVTAVAGRKIYSTATGRIGGPEGPVAVRADALFVEVKVDHFTDNGRQEEIRAAMNDPDQLRRARAFEVNPLEHHHHHH” it was “not soluble”.

For “MAISNILPRKIMKNRTRQQSMAERHDYDQKEEKTDGGELVSSYMCSPETAAEEFEISKKLYAQLTGRSQSEKHDIIMYRIIQSFKPDEVSPEEAHKIGCELAMKFTGGQHQFVVATHTDKRHIHTHIEFNSTNLNCDAKFQNVKNSAFILRRMNDELCRAHGLSVIENPKKKARPQKEMAAAQYGVSHKKQLQQAIDRLLPECNHYEEFLAKMRAEGYEVVDGKNPGFRLPGWDRPTRVNRLGDDYTKTALRARITSQRRRLTSGKTAPKRTGRKVNLLIDIQAKLAAGKGAGYERWAKIFNLKEAAKTLNFLIENNLTDYDELALRAEQAENGFNAVSQKIKQLEARMAGIAQLKTHIIQYSKTREVYAAYKKSRHKKEFLAEHGAEIAQHEAAKKAFDALNGKAIPKVAQLSAEYAALLEEKREQYEQYKTLRQDMITYQTALRNMDKILGLEPPEQAQEKEQTKPER”, the “soluble on expression in E. coli” value is given as “not soluble”. Next, “MKRVLSGIQPSGEIHIGNYLGAIKQWVAIGEKWGRDAFFCIVDYHALTNPLAYDPSTLAQRTFEAALVNIAAGLDPEKVTLFVQSHVPEHTELSWVFTTLTPLGDLTRMTQFKDKASKQETVWSGLLMYPVLQAADILIYKADTVPVGEDQVQHIELTREIARRFNHLFGETFPEPQALLNPEAPRVPGIDGKAKMSKSLGNTIGLLEPEESIWQKIQHLPDDPQRIRLSDPGDPERTILFTYLSYFAPKDLVEALKEEYRKAGVGTYVVKRILFDHLMEALRPIRERAEALKKDPDYVMDALLEGAKRARAVAQATMEEVREKVGLLLPRKRPVLR”: “soluble”. As to “MGYTLADKIWRSHVVRSAEGEPDLVYIDMHLLHEVNTPAAFAGLRAAGRTVRRPDLTLGTEDHNTPTDDVLRMITDPGAVEQLDHIRRNCRDFGIELYSLGDSARGIVHVIGPELGLTQPGMTLVCCDSHTSTHGAFGVLAFGIGTSQVEHVLATQTLPMAPMQN”, the “soluble on expression in E. coli” value is “not soluble”. Next, “MGSDKIHHHHHHAQNFSDYFTNKTLRIDYLFTGNADKQSICLDELSELPVWAGRRHHLSELPLEGNGQIVMRDVASGKVIYTTSFSSLFQEWLETDEAKEVTKGFENTYLLPYPIKPAEVEITLRNNKREVSANLKHVVKPDDILIHKKGLTHITPHKYLLKSGNEEQCIDVAILAEGYTTSEMETFYKDAAIACEALFSHEPFQSMKNRFNIVAVASPSADSGVSAPKQGAWKHTAFGSHFDTFYSDRYLTTSRVKAINDALAGIPYEHIIILANTEQYGGGGIYNAFTLTTAHHPNFRPVVVHEFGHSFGGLADEYFYDEDVMNGLYPLNIEPWEQNITTRINFASKWEDMLTKTTPVPTPVADKAKYPIGVYEGGGYSAKGIYRPAFDCRMRTNEYPTFCPVCQRAIQRIIEFYTGK”: “not soluble”; “MGHHHHHHSHMPSLSTLRMRRCPSSLWIRFGYDPRKNPDAKIYQVLDFRIRCGMKHGYAPSDLPVKAKRSTYNYSLPITVKKTSSQLVTMHDLKQGLGPSGTSGARKPASSKYKLKVSLQTLRDSVYIFREGALPPYRQMFYQLCDLNVEELQKIIHRNDGAENSCTERDGWCLPKTSDELRDTMSLMIRQTIRSKRPALFSSSAKADGGKEQLTYESGEDEEDEEEEEEEEEDFKPSDGSENEMETEILDYV”: “not soluble”. In the case of “MSLDLLFSECNDEIDNAKLIMKERRFTASYTFAKFSTGSMLLTKDIVGKSGVSIKRLPTELQRKFLFDDVYLDKEIEKVTIEARKSNPYPQISESSLLFKDALDYMEKTSSDYNLWKLSSILFDPVSYPYKTDNDQVKMALLKKERHCRLTSWIVSQIGPEIEEKIRNSSNEIEQIFLYLLLNDVVRASKLAIESKNGHLSVLISYLGSNDPRIRDLAELQLQKWSTGGCSIDKNISKIYKLLSGSPFEGLFSLKELESEFSWLCLLNLTLCYGQIDEYSLESLVQSHLDKFSLPYDDPIGVIFQLYAANENTEKLYKEVRQRTNALDVQFCWYLIQTLRFNGTRVFSKETSDEATFAFAAQLEFAQLHGHSLFVSCFLNDDKAAEDTIKRLVMREITLLRASTNDHILNRLKIPSQLIFNAQALKDRYEGNYLSEVQNLLLGSSYDLAEMAIVTSLGPRLLLSNNPVQNNELKTLREILNEFPDSERDKWSVSINVFEVYLKLVLDNVETQETIDSLISGMKIFYDQYKHCREVAACCNVMSQEIVSKILEKNEGHHHHHH” it was “not soluble”; in that of “MNNKKINFGCCNWTRDAMKWRQRFEAADVTWVSRTNNGPADLLAKHRLPDNCSFQYHYYVPPFIVSALHCNHS”, “soluble”; in that of “MSLIYAQILAGGKGTRMGNVSMPKQFLPLNGKPIIVHTVEKFILNTRFDKILISSPKEWMNHAEDNIKKYISDDRIVVIEGGEDRNETIMNGIRFVEKTYGLTDDDIIVTHDAVRPFLTHRIIEENIDAALETGAVDTVIEALDTIVESSNHEVITDIPVRDHMYQGQTPQSFNMKKVFNHYQNLTPEKKQILTDACKICLLAGDDVKLVKGEIFNIKITTPYDLKVANAIIQERIANEGHHHHHH”, “soluble”. Next, “MTVKAMALNTNQLFAYLNRGDIAEFKFSPLFTTLFFPNVATFSTQNIMLDTLDIEEVTMSAFCSPMVGSQVQRDKGYETSTIKPGYMKPKHEIDPTKTIMRMAGEDPAQLNDPTYRRMRLITGNMRRQINAIKARVEWLAVNAVTTGKNIIEGEGIERYEIDWKIPEKNIIEQADGKKWSEQDKETHYPIYDIELYADQAGCPANVMIMGAEVWRTLRSFKKFRELYDLSRGSESAAELACKNLGEVVSFKGYLGDLALIVYSGKYTDSDGTEKYFLEPDLLVLGNTNNKGLVAYGAIMDQEAVRTGATQNMFYPKNWIEDGDPAIEYVQTHSAPQPVPADIRKFVTVKIA”: “soluble”; “MINNSNDIGFIQDIAGLDKLRQKAVNGDENAGQSALTAAARQFESIFTSMMLKSMRDANSDFKSDLMSSQNEDLYRQMLDEQMASEFSSSGSLGLADMIVAQLSTGQTASEQKGEDGFQEAMRRVEHARKTASERSNEDLVAAVYPLRKTQAVQSTQFDSRHSFVTKLKPYADKAARMLGVDSSLLIAQAALETGWGQKMVKNARGNSNNLFNIKADRSWQGDKVATQTLEYHNNVPVVEKAAFRSYASFDESFNDYVRFLENNPRYTNALDHGGNSERFIHGIHRAGYATDPQYADKVLRVKAQIDQMNLL”: “not soluble”. Regarding “MSVIIISRNQEKLDRAAKKIELNTGGKVKVIAADFTKDDIYGHITENIEGLDIGVLVNNVGILPSQIPCKLLETSDLEERIYDIVNCNVKSMVKMCRIVLPGMQQRRRGVILNVSSGIAKIPCPIYTLYAASKVFVERFSQGLQAEYISKGIIIQTVAPFGVSTAMTGHQKPDMVTFTAEEFVRSSLKYLKTGDQTYGSITHTLLGRIVQSIPTWVLQSETFQHHFQEYVKNRDRR”, the “soluble on expression in E. coli” value is reported as “not soluble”.

As to “MGKVLIIGAGGVGTVVAKKVAMNTDVFTEIMLASRTRSKCDKIASEIKNVRIQTAQVDADNVEELVALFESFKPELVINVALPYQDLTIMDACLRCGVNYLDTANYEPLDEAKYEYSWQWAYQDRFRK”, the “soluble on expression in E. coli” value is listed as “not soluble”. Consider “MGSDKIHHHHHHMQSLPHDVVGYARDYRDGYVSVRHRHPRHQLIYAISGLMMAETDAMSHAIPPGYGLIVPAQQPHEIRMIGAVRLQSLYVRAGLPRADALARCRLVTISPLLAQLIAALCEMANPWPMPPRALHLSQLILIELLAAPVSPLALPYPTDPRLRRVCDGLIATPASPRSLDDWAAEAGMSRRTFSRHFQLETGLSFGKWAQRLRCQAALRGLAKGRPAARVARELGYANAYTMAAMMRRMT”, for which the “soluble on expression in E. coli” value is recorded as “not soluble”. As to “MGSDKIHHHHHHMAIGLSTYAFFWRASSRVPNPLGLAAMLEQTAESGAGVFQICDYAAVEALSPAELEKLRQRAVDLGIQLELGTRGLATDHLTRYLTMARALDVRFIRTMFNSATHKPTQDEALALLRCVLPEFEQYNIQLGLETYEQVKTRDVLAVVDAIDSPALGICLDPGNCVAALEYPHEVIELTASRVVNLHIKDFAFARQEGWVGFTYSGCLLGTGLLDYDALHQTIRPNERNINQIVEHWLPWQASAEETCRLEDAWTRHSLNYLYTRNPYANRSSHIL”, the “soluble on expression in E. coli” value is “not soluble”.
